# Source: the DeepSol protein solubility set
# Assay: soluble on expression in E. coli; label from the status in PepcDB or PDB records
row,Sequence,soluble on expression in E. coli
1,MSLNDQIKIRKATKEDWEKIYQLYNSLSDEDLYLRFFHLYRITEEDAKKIASNEDHVTFLAEVDGKVVGEASLHKDGEFSLVVHRNYRTLGIGTLLVKTLIEEAKKSGLSTVKFYTLPENTPMIKIGRKLGFKMRFYEDEVYGEMRLTERELNVNLATFSAPEGHHHHHH,soluble
2,MGSDKIHHHHHHMTRRAWTLLDGGMGRELKRIGAPFRQPEWSALALFEAPEYVTQVHRAFIAAGARVITTNSYAVVPFHIGEERFARSGRALAELSGRLARGAADEAGASVQVAGSLPPALGSYRPDLFDPARSQAIHRELICGLTPHVDFWLAETQSSLAEARAVHAALDGDGKPLWLSFTLLDPDTEHAVPLLRSGESVQQAVLLALELGASALLFNCSQPESMGAALRSARQVLKQEARELALGVYANAFPPVREDAQANDTLLDIRADLGPEAYLQWAQQWVEEGADIVGGCCGIGPEHIARLDEHLQACKQGME,not soluble
3,MLKYRDEKDISACGIFGIMDRKGRRFNGKLVIEAMSQMKVRGNGLGAGFAVYGLYKKFKEYYAFHVMIYDKDGREKLEKFLSTNFDIVYVDEIPVNDKAKVIDPPKFMRYFVAPRKKGTEKVLNDDDFVVKKVMYINRAIPGVYVISSGKNMGVFKGVGFPEDIADYFMIEEYKGYIWTAHTRFPTNTPGWWGGAHPFSILDWSVVHNGEISSYGTNKRYLEMYGYYSTLQTDTEVITYIFDLLVRRQGLPIEVVSKILAPPMWEEIDRMPEKEKKFYKALRMVYSPILLNGPWAIIVARHGEMIGLTDRIRLRPLTVAEKKSFLIISSEEAPIRYLFRDVDRIYTPYGGELVVGKLEEDIKKFVGESQ,not soluble
4,MSADLKQSRLADWRQRALAFEREVGKAVIGLERPIRHILIAVFARGHVMLEGDVGVGKTTLLRAVARCLGGAYERVEGTIDLMPNDLVYHTYINELGKPQVEPGPVLKHGEELSVFFFNEVNRARPQVHSLLLRIMAEHAVSAFNREHFFPYLQVFADRNRVEKEETFEIPSAARDRFMMELHVETPADPALRRALMFDPKFHDVDRLLDTLTPGILPYREIPQIAPVIQQSVTASETLQQYALDLWEATRRPADYGVKLEGIDMDRLILAGASARGVSMMMRAARVAAWLDGRDYLVPEDIHDVFRETIGHRVFFNPVYELRRTALIDELLHAIRQKVAAPLEHHHHHH,soluble
5,MPDGDFITLDRVEKVFDVRRKTGFLRSERRRVRAVDSLSFTVARGEMVGYIGPNGAGKSTTIKMLTGILTPSGGRLRVAGIDPSRERTRLAARIGVVFGQRTTLWWDLPLIDSYRLMHRMYRIPDGRYRENLDRCVELLELGDLLDVPVRQLSLGQRMRGDIAAALLHDPEVLYLDEPTIGLDVISKARVREFLRELNAERGTTVLLTTHDLQDIEQLCGRVMVIDHGRLMYDGPLAGLHEVGDSERTLVVDLARELPPIEAAPARVVKVEGPRQWLAFPASESAAPLVARIAAAYPLVDLSVREPDIEAVIAKMLQSMGDTPQPPPEQAEHVVSLEHHHHHH,soluble
6,MSLSKEVVYVPTGSIAKERSIFFDLKHMDKLTDLVNSGSFSADSKIKSEASGNIRMDVILSADNKFAAVQLFQFVPYTYQPVTAVHYFTNDAAAAVAAFLTKSQLNEGHHHHHH,soluble
7,MLPTTSSLQIGELAAGQALTLPIYHFKPSGKHSGPKVYIQANVHGAEVQGNAVIYQLMKQLERCDILGEITLVPLANPLGINQKSGEFTLGRFDPITGVNWNREYLNHAIDLPTWYKEHAELSDSELIQAYRSTLVEACQRRLRNDWGVTTGHRLAVNLQAMAHEADIVLDLHTGPKSCKHLYCPEYDIASAQFFAIPYTLVIPNSFGGAMDEAAFCPWWQLSEVAKVMGRDLEIAVSAFTLELASQERICLEDALVDAKGILAYLSHRGVIAEQVEPAKMRRFGCYLKDYKKYHAPMAGLVEYVAPVGEPLAAGETLVNLLRLDLYGSEQELTALSLPQDCVPILHFASASVHQGTELYKVMTNLFELPH,soluble
8,MKVAIVGVSGAVGQEFLRVLDERNFPMDELVLFGSKRSAGTTYTFRGKQIEVKLLQHNDDFKGVDIAFTSAGAGTSKEFEKTITKYGAVMIDNSSAFRMDADVPLVVPEVNAADALERPRGVIANPNCTTIQMVVALKAIEQLSHIKTVHVSTYQAASGAGAAAMDELYEQYRQVLANEPVTVEKFAYQLAFNLIPQIDVFTENGYTKEEMKMYNETRKIMHSDVKVSATCVRVPALRAHSESIWVETERPISVEEAREAFAKGEGLVLQDNPAEKEYPMPLFLAGKDPVYVGRIRKDLTNENGLTFWIVGDQIKKGAALNAVQIAEYLIKVKNV,not soluble
9,MTSTSRPPARGSENNGSGGSDGSGSGEDKVKGPTDKELEDAVNKLVEVAKKKAQEEADQARRSVEGKKSFEGDVLEYPYTREEVTKMIEDGAKEIKERFAAVYTPKPDDFDTMISRMQQVEAVLGAYEPSKNTTKETPVIGGGGDLELLRTSVSDMSDWQGKLKNAFVDNYLTPFPRITVTQGGLARFLRHQAEWMQAIYKRRRYDAKKTADQGVEAIEAIDDSKGSEAAIALAAIIGLATLLGPMGSSLAFGLGTSAVVAGTGIGAEFIEEDKEVPLGADTVQGVIDNVYKALEESDKTMVEEEGKVLDALKQIEGVVYPLVMGPDIDKGTELTPMRPAIVDTMDVEELKDGITVYDRHPGGS,not soluble
10,MGSDKIHHHHHHMAFTESDVYNNEAFFEQYMKRRYRENSPNEALEKPAFFQLISDVKGKRILDLGCGDAKFGEELLEKGCHSYTGIEGSELMYEKAKKQLENKNGAVHFLNLKDYTYPPSTFDLVTSRLALHYIEHLPIIFQNVYETLKTNGTFTFSVQHPIITSSFESLQTSGKRTSWLVDDYFKLGKRVEPWIDQEVIKYHRTTEEYFTLLQQAGFTITNLKEATPDQTYFQNAEEYERRLRIPLFLLFSCRK,not soluble
11,MGSDKIHHHHHHMLQFIPVFDGNTIAVRASGKLTLEDFQQFFPQLETQIKRLGKISLLFEFDNFSGWDLDAAIDDIKFGMKHLSDFERIAMVGDKSWEHWMALIAKPFLISSEVRYFNRENLQQAWDWLREKQEFEKAVEQLQPYQNIVVAVDFSLYSKHACKRAIELANYYQASLTLLNVVPEVLAYTLYGDPVGYNVVDLDIIKDQNKKNIDAAQFQMKAFVNDLDTNFPIETKVICGEINYGVVSFLEAQHIDLAIFGAKKKKGINKLLGSVPHYVQNHSRCEILIVPVQGPVF,not soluble
12,MSLELDAVSRSYKRWAPIYDFSFGKVSESPRRRTAAHVNARGGRVLEVGVGTGLSLPLYSHRVAVTGIDFSHEMLARAREKVEEMGLEPVKELRQMDARELDFPDETFDTVVAMFLVSVVPEPERVVSEMARVCRKGGEVVIVNHFARDKGPLAAVEKALARFENTLGWHSDFAIERVTADPRLEVVEQTPMSPGGLFTFLRFQRREGHHHHHH,soluble
13,GSRLNPVQLELLNKLHLETKLNAEYTFMLAEQSNWNYEVAIKGFQSSMNGIPREAFVQF,soluble
14,MGSDKIHHHHHHMAKERVDVLLVEQGLFDTREKAKRAVMAGEILGDNEERLDKPGVKIDPSVKLHLKGKPMPYVSRGGLKLEKALKVFGLDVKGLTVLDIGSSTGGFTDVMLQNGAKLSYALDVGTNQLVWKLREDPRVVVMENTNFRYSKLEDFTEGQPEFASIDVSFISLKLILPALKNIIKTHGSVVSLIKPQFEAGRENVGKHGIVRDRKVHEEVLKNVLAMANAEGFNVKGLDFSPIKGGEGNIEFLAWLERSDTDQGVIEENVDTQKVIDSAYSNLNS,not soluble
15,MAGDPMKVFVVNLDKDKDKKEKIKNECRNAELDYEIISAVDGRELSYNELKSKVHPVSLNYLSKGEIGCVLSHQRIYKRILDDDIDYALILEDDVELSQDIKVFLKEFLSVKDKNKGDVFLLYPSGLRFLNRRINVSHDYFFYEAYNSSCAHGYIISNKAAKKLIRINTPIILVADAWLWFYQISLLKVYVLNKELVRAYDVDKSLSTIETERSLLLDEKEKHQMQIIKKQPLYYLIKYYHKYIRRLFINKDKLEHHHHHH,soluble
16,MSLSLIKVGLVGIGAQMQENLLPSLLQMQDIRIVAACDSDLERARRVHRFISDIPVLDNVPAMLNQVPLDAVVMAGPPQLHFEMGLLAMSKGVNVFVEKPPCATLEELETLIDAARRSDVVSGVGMNFKFARPVRQLREMTQVDEFGETLHIQLNHYANKPRAPLWGLDSTLRSFLLAQAIHTIDLAITFGDGELRRVQSSVQRHDDALIVRADMAFSSGATASLLAGTSFPYFEFDMKLVSSSSTLVELDNLWNITLHEPEHATRPTGAAKRWRGAWQPGPLDSGYERSGYHGELHQFFQAIREHRRFEADFASLLPTYRVIEEICSADAVAQGLQNAHSRIRTGIESLSEGHHHHHH,soluble
17,MSLTITLRVLGTSVTLLESLRERAEQELGIKLVYQIHDVQTAQRIAVMQPDSYDLYDQWFHNVDFVWPARAIQPIDTRRIALWHEINDLPKRGRLRPTDQPGSGSVPSERLFVQHDGSLGSTVTERISMLPLTHNADSFAYRPERLPEGLSPADESWGWLLDSAWGGRIALQSDAAIGALDAALAVQGAGLAQFNDIGNMSIEEIDLLADVLVRKQQQGHFGAFWSDDEEAAELMLSPTIDIQSLWSPTLVRLHRAGVKYRVAVPKEGYRGWFGGLSLSRYAKGPVLDAAYAYLNWWLSGWPGAVMARQGYYIGNPARSRDHLSAAEWDYWYAGLPAREQLLGSDGLPLIDAGEIRDGGSYEERMGHIAVWNSVMNEHNYLVRRWSDILRASGKSSAKAREGHHHHHH,soluble
18,MGSDKIHHHHHHMNFETVIGLEVHVELKTKSKIFSSSPTPFGAEANTQTSVIDLGYPGVLPVLNKEAVEFAMKAAMALNCEIATDTKFDRKNYFYPDNPKAYQISQFDKPIGENGWIEIEVGGKTKRIGITRLHLEEDAGKLTHTGDGYSLVDFNRQGTPLVEIVSEPDIRTPEEAYAYLEKLKSIIQYTGVSDCKMEEGSLRCDANISLRPIGQEEFGTKTELKNLNSFAFVQKGLEHEEKRQEQVLLSGGVIQQETRRYDEATKKTILMRVKEGSDDYRYFPEPDLVELYIDDEWKERVKASIPELPDERRKRYIEELGLPAYDAMVLTLTKEMADFFEETVQKGAEAKQASNWLMGEVSAYLNAEQKELADVALTPEGLAGMIKLIEKGTISSKIAKKVFKELIEKGGDAEKIVKEKGLVQISDEGVLLKLVTEALDNNPQSIEDFKNGKDRAIGFLVGQIMKASKGQANPPMVNKILLEEIKKR,not soluble
19,MGSDKIHHHHHHMEHPENNEEYKGLVVNKGIEQPSSVNPYLKRKPKKRQLSVAEFVEGIVKGDVTILSQAVTLVESVKPEHQAVAQEVIEKCLPYSGNSIRVGISGVPGAGKSTSIDVFGLHVLEKGGKLAVLAIDPSSERSKGSILGDKTRMEQLSVHPQSFIRPSPSAGSLGGVARKTRETIVLCEAAGFDKIFVETVGVGQSETAVHSMVDFFLLIQLAGTGDELQGIKRGIMEMADGIVINKADGDNLEPAKLAASQFRNALHLFPAPESGWIPKVLTYSGFYNIGVKEIWDMVYEYIDFVKKNGYFDYRRNEQSKYWMYETINEQLRDSFYHNPRIEAMLQEKEQQVLQGNLTSFIAAKSLLDTYFDELKR,not soluble
20,MILFGTGGIRGVMRKGEFDEETVKRASLSTALWLKEKGQKSVVIAYDTRKNSKEFAELAGRVFAGEGIEAYVFPEPTPTPVLSFAVRYMKTGGGVVITASHNPPEYNGYKVYTWDGVQAIPEYTNEITEIYKKVDLSHVKEGEIKFVPPEVKESYIKAVLEIVSNLPMKTDLDIAYSPLHGTGANYVPEVLKRLGFKVRLVEEQMKPDPNFSTVPTPNPEEDEALVLLNKKGATLGLATDPDCDRVGVVFKGRRLTGNQVGVLLTDFLLDHVKVENPLVIKTIVTTDMVRPICEEKGAFLEETPTGFKFIGHLIEEHTKKGDRNFVFGFEESCGYLAGNHARDKDGVVGSVLSAVAFSNYDPYEKLEELYQKYGYYMEKLINFKFEDVDRAVEIYRSLKNYDGIIDYSKGYGNVIPNETIAFVFEKSRIFVRPSGTEPKLKVYIHVRGDTREEAEELMKESESKIKEILKL,soluble
